# Values joined by “and” are separate entries in the source; they are usually repeats but may differ in a detail not shown here. Equal entries are not always repeated.
# Experiment: AlbuBChE serum pharmacokinetics after single IM dose (ELISA)
# Conditions: for tmax: group value
# Method: The study included a total of 11 naïve, adult male cynomolgus monkeys divided into four dose groups: • a control group of two cynomologus monkeys that only received a single IV dose of cocaine; • three dose groups that were treated with a single IM dose of AlbuBChE at 0.2, 1 or 5 mg/kg. Three naïve, adult male cynomolgus monkeys were used in each dose group. Following AlbuBChE treatment, a 1 mg/kg IV dose of cocaine was administered at 2, 48, 96, 120, and 240 hours after AlbuBChE dose administration.
# A single intramuscular (IM) administration of AlbuBChE was administered on study day 1 and blood was collected at the time points outlined in Table 2. Approximately 0.5 mL of whole blood was collected from the femoral vein into serum separate tubes (SST).
# Blocking is done with 2% Casein in 1×PBS, 200 μL/well, 2 hours at room temperature. After washing, 100 μL of diluted serum samples are added to the plates along with standards. Standards are generated through 3.64 fold, serial dilution of AlbuBChE from 2000 to 3.1 ng/mL. Serum samples and standards are maintained at 10% serum by dilution with buffer containing pooled cynomolgus monkey serum. A wash step precedes detection with 100 μL of anti-HSA mAb-6502-HRP at 0.04 μg/mL for 1 hour. Wells are washed again, prior to developing with 100 μl of TMB substrate. After 15 minutes, the reaction is terminated with 100 μL/well of 1N H2SO4 and read on SpectraMax plate reader at 450/570 nm. Values for unknown serum samples are calculated by interpolation of standard curve generated by 4-parameter fit of AlbuBChE standards. The limit of quantitation in cynomolgus serum was 21.1 ng/mL.
# AlbuBChE pharmacokinetic parameter values were determined using serum concentration-time profiles for individual animals. The computer software WinNonlin Professional (Version 4.0.1 Pharsight Corporation, USA) was used. Specifically the model for non-compartmental analysis with extravascular input was applied. If there were fewer than 3 data points in the terminal phase of the serum concentration curve, a terminal phase half-life and PK parameters derived from the half-life were not calculated for that profile. Parameters analyzed include tmax, Cmax, t1/2, AUC(0-t) and AUC(0-∞) were calculated.
substance,measurement,setting,value
AlbuBChE,"AlbuBChE serum concentration, individual animals","1.0 mg/kg IM, 24 hr post dose",630.1 ng/mL and 673.8 ng/mL and 572.1 ng/mL
same,Mean AlbuBChE serum concentration,"1.0 mg/kg IM, 24 hr post dose",625 ng/mL
same,"AlbuBChE serum concentration, individual animals","1.0 mg/kg IM, 36 hr post dose",373.4 ng/mL and 471.7 ng/mL and 348.2 ng/mL
same,Mean AlbuBChE serum concentration,"1.0 mg/kg IM, 36 hr post dose",398 ng/mL
same,"AlbuBChE serum concentration, individual animals","1.0 mg/kg IM, 48 hr post dose",289.4 ng/mL and 362.7 ng/mL and 264.4 ng/mL
same,Mean AlbuBChE serum concentration,"1.0 mg/kg IM, 48 hr post dose",306 ng/mL
same,"AlbuBChE serum concentration, individual animals","1.0 mg/kg IM, 72 hr post dose",122.1 ng/mL and 235.0 ng/mL and 133.0 ng/mL
same,Mean AlbuBChE serum concentration,"1.0 mg/kg IM, 72 hr post dose",163 ng/mL
same,"AlbuBChE serum concentration, individual animals","1.0 mg/kg IM, 96 hr post dose",87.0 ng/mL and 131.7 ng/mL and 75.3 ng/mL
same,Mean AlbuBChE serum concentration,"1.0 mg/kg IM, 96 hr post dose",98.0 ng/mL
same,"AlbuBChE serum concentration, individual animals","1.0 mg/kg IM, 128 hr post dose",36.2 ng/mL and 72.0 ng/mL and 38.1 ng/mL
same,Mean AlbuBChE serum concentration,"1.0 mg/kg IM, 128 hr post dose",48.8 ng/mL
same,"AlbuBChE serum concentration, individual animals","1.0 mg/kg IM, 144 hr post dose",27.4 ng/mL and 47.7 ng/mL and 31.5 ng/mL
same,Mean AlbuBChE serum concentration,"1.0 mg/kg IM, 144 hr post dose",35.5 ng/mL
same,"AlbuBChE serum concentration, individual animals","1.0 mg/kg IM, 168 hr post dose",<LLOQ (2×) and 39.5 ng/mL
same,Mean AlbuBChE serum concentration,"1.0 mg/kg IM, 168 hr post dose",<LLOQ
same,"AlbuBChE serum concentration, individual animals","1.0 mg/kg IM, 216 hr post dose",<LLOQ
same,Mean AlbuBChE serum concentration,"1.0 mg/kg IM, 216 hr post dose",<LLOQ
same,"AlbuBChE serum concentration, individual animals","1.0 mg/kg IM, 264 hr post dose",<LLOQ
same,Mean AlbuBChE serum concentration,"1.0 mg/kg IM, 264 hr post dose",<LLOQ
same,tmax,1.0 mg/kg IM,3 h
same,"AUC % Extrap, individual animals",5 mg/kg IM,1.86% and 0.938% and 1.85%
same,"AUC(0-t), individual animals",5 mg/kg IM,201.754 µg·h/mL and 437.848 µg·h/mL and 235.983 µg·h/mL
same,"AUC(0-∞), individual animals",5 mg/kg IM,205.584 µg·h/mL and 441.992 µg·h/mL and 240.442 µg·h/mL
same,"Cmax, individual animals",5 mg/kg IM,6016 ng/mL and 17687 ng/mL and 6530 ng/mL
same,"Tmax, individual animals",5 mg/kg IM,6 h
same,"t½, individual animals",5 mg/kg IM,63.4 h and 56.4 h and 65.5 h
same,Dose Normalized AUC(0-∞),5.0 mg/kg IM,59201
same,Dose Normalized Cmax,5.0 mg/kg IM,2016
same,Mean AUC % Extrap,5.0 mg/kg IM,1.55%
same,Mean AUC(0-t),5.0 mg/kg IM,291.862 µg·h/mL
same,Mean AUC(0-∞),5.0 mg/kg IM,296.006 µg·h/mL
same,Mean Cmax,5.0 mg/kg IM,10078 ng/mL
same,Mean t½,5.0 mg/kg IM,62 h and 61.8 h
same,"AlbuBChE serum concentration, individual animals","5.0 mg/kg IM, 1 hr post dose",2580.0 ng/mL and 6570.9 ng/mL and 3821.0 ng/mL
same,Mean AlbuBChE serum concentration,"5.0 mg/kg IM, 1 hr post dose",4324 ng/mL
same,"AlbuBChE serum concentration, individual animals","5.0 mg/kg IM, 3 hr post dose",4899.0 ng/mL and 12683.9 ng/mL and 6024.0 ng/mL
same,Mean AlbuBChE serum concentration,"5.0 mg/kg IM, 3 hr post dose",7869 ng/mL
same,"AlbuBChE serum concentration, individual animals","5.0 mg/kg IM, 6 hr post dose",6016.0 ng/mL and 17686.8 ng/mL and 6530.3 ng/mL
same,Mean AlbuBChE serum concentration,"5.0 mg/kg IM, 6 hr post dose",10078 ng/mL
same,"AlbuBChE serum concentration, individual animals","5.0 mg/kg IM, 12 hr post dose",4178.0 ng/mL and 11105.8 ng/mL and 5091.0 ng/mL
same,Mean AlbuBChE serum concentration,"5.0 mg/kg IM, 12 hr post dose",6792 ng/mL
same,"AlbuBChE serum concentration, individual animals","5.0 mg/kg IM, 24 hr post dose",2836.0 ng/mL and 5034.0 ng/mL and 3325.0 ng/mL
same,Mean AlbuBChE serum concentration,"5.0 mg/kg IM, 24 hr post dose",3732 ng/mL
same,"AlbuBChE serum concentration, individual animals","5.0 mg/kg IM, 36 hr post dose",1572.0 ng/mL and 2929.0 ng/mL and 1901.0 ng/mL
same,Mean AlbuBChE serum concentration,"5.0 mg/kg IM, 36 hr post dose",2134 ng/mL
same,"AlbuBChE serum concentration, individual animals","5.0 mg/kg IM, 48 hr post dose",1329.7 ng/mL and 2644.4 ng/mL and 1604.9 ng/mL
same,Mean AlbuBChE serum concentration,"5.0 mg/kg IM, 48 hr post dose",1860 ng/mL
same,"AlbuBChE serum concentration, individual animals","5.0 mg/kg IM, 72 hr post dose",637.7 ng/mL and 1190.8 ng/mL and 723.6 ng/mL
same,Mean AlbuBChE serum concentration,"5.0 mg/kg IM, 72 hr post dose",851 ng/mL
same,"AlbuBChE serum concentration, individual animals","5.0 mg/kg IM, 96 hr post dose",415.1 ng/mL and 732.6 ng/mL and 454.7 ng/mL
same,Mean AlbuBChE serum concentration,"5.0 mg/kg IM, 96 hr post dose",534.1 ng/mL and 534 ng/mL
same,"AlbuBChE serum concentration, individual animals","5.0 mg/kg IM, 128 hr post dose",217.2 ng/mL and 325.9 ng/mL and 224.3 ng/mL
same,Mean AlbuBChE serum concentration,"5.0 mg/kg IM, 128 hr post dose",255.8 ng/mL and 256 ng/mL
same,"AlbuBChE serum concentration, individual animals","5.0 mg/kg IM, 144 hr post dose",158.4 ng/mL and 254.7 ng/mL and 163.3 ng/mL
same,Mean AlbuBChE serum concentration,"5.0 mg/kg IM, 144 hr post dose",192.1 ng/mL and 192 ng/mL
same,"AlbuBChE serum concentration, individual animals","5.0 mg/kg IM, 168 hr post dose",118.9 ng/mL and 165.5 ng/mL and 130.4 ng/mL
same,Mean AlbuBChE serum concentration,"5.0 mg/kg IM, 168 hr post dose",138.3 ng/mL and 138 ng/mL
same,"AlbuBChE serum concentration, individual animals","5.0 mg/kg IM, 216 hr post dose",73.7 ng/mL and 91.6 ng/mL and 79.4 ng/mL
same,Mean AlbuBChE serum concentration,"5.0 mg/kg IM, 216 hr post dose",81.6 ng/mL
same,"AlbuBChE serum concentration, individual animals","5.0 mg/kg IM, 264 hr post dose",41.9 ng/mL and 50.9 ng/mL and 47.2 ng/mL
same,Mean AlbuBChE serum concentration,"5.0 mg/kg IM, 264 hr post dose",46.7 ng/mL
same,tmax,5.0 mg/kg IM,6 h
